A short description of the data set: label from the status in PepcDB records.
Take “MRYHGGLLLGAFDDDGKIIGMSFGYPGFRNGKLYLYSHMAGVVENKKYSNVGYSLKMKQRDLAASMGYDLIAWTFDPFNPLNAYFNISKLGAITRTYIKNFYGVMNDGINRGMRTDRVVAEWWI”: the protein production entry is “failed”.
As to “MRYIKFFKELNNKNVNLVGGKNASIGEMFQELVPIGIKVPDGFAITSEAYWYLLEQGGAKQKIIELLENVDATEIDVLKIRSKQIRELIFGTPFPSDLRDEIFQAYEILSQQYHMKEADVAVRSSATAEDLPDASFAGQQDTYLNIKGKTELIHYIKSCLASLFTDRAISYRASRGFDHLKVALSVGVQKMVRADKGSAGVMFSIDTETGFKDAVFITSAWGLGENVVGGTINPDEFYVFKPTLEQNKRPIIKRQLGNKTQKMVYAPRGSEHPTRNIKTTKKEWQSFSLSDEDVLILAKYAIEIEKHYSKEAKQYRPMDIEWAKDGESGEIFIVQARPETVQSQKSKEESQVFEKFKFKNPNEKKEIILQGRAIGSKIGSGKVRIINDLEHMNSFKEGEILVTDNTDPDWEPCMKKASAVITNRGGRTCHAAIVAREIGVPAIVGVSGATDSLYTGMEITVSCAEGEEGYVYAGIYEHEIERVELSNMQETQTKIYINIGNPEKAFGFSQLPNHGVGLARMEMIILNQIKAHPLALVDLHHKKSVKEKNEIENLMAGYANPKDFFVKKIAEGIGMISAAFYPKPVIVRTSDFKSNEYMRMLGGSSYEPNEENPMLGYRGASRYYSESYNEAFSWECEALALVREEMGLTNMKVMIPFLRTIEEGKKVLEILRKNNLESGKNGLEIYIMCELPVNVILADDFLSLFDGFSIGSNDLTQLTLGVDRDSELVSHVFDERNEAMLKMFKKAIEACKRHNKYCGICGQAPSDYPEVTEFLVKEGITSISLNPDSVIPTWNAVAKLEKELKEHGLTEH”, the protein production result was “failed”.
“MRYLADHDDLTGLHNRRALLQHLDQRLAPGQPGPVAALFLDLDRLKAINDYLGHAAGDQFIHVFAQRIGDALVGESLIARLGGDEFVLIPASPMSADAAQPLAERLRDQLKDHVAIGGEVLTRTVSIGVASGTPGQHTPSDLLRRADQAALAAKHAGGDSVAIFTLEHHHHHH”: the protein production entry was “failed”.
As to “MRYLSKDILEEVITQRPSDSYKSNFGRVVLIGGNRQYGGAIIMSTEACINSGAGLTTVITDVKNHGPLHARCPEAMVVGFEETVLLTNVVEQADVILIGPGLGLDATAQQILKMVLAQHQKQQWLIIDGSAITLFSQGNFSLTYPEKVVFTPHQMEWQRLSHLPIEQQTLANNQRQQAKLGSTIVLKSHRTTIFHAGEPFQNTGGNPGMATGGTGDTLAGIIAGFLAQFKPTIETIAGAVYLHSLIGDDLAKTDYVVLPTKISQALPTYMKKYAQPHTAPDSELLEQKRSR”, the protein production result was “not failed”.
Regarding “MRYRDNLKRSLKQAALAAGLLMTMSCAVRATPQDDLRSAVEYNRPALVQKLVAQGVDPNLDTRDGTPLLVDALKDKNIDVAEALIRAKGLDFERANAAGENALMMAAYQGLLPLVRLMVETYDVEVNKTGWTALHYAATNGHDAIVQYLLDHGAYIDAESPNGTTPLMMATMGGQITTVKLLLDEGADMNLRNQQKMDVIDFAKRYHQDEIAAGLESRRRKLAEPGAQPVPARQPAAPAGMRPAAPVVPDVPAPMPAPRAPESAIDRDATSGLPGSLSDQKTVPPPDLRGN”, the protein production entry was “failed”.
For the sequence “MSAATKQQCCARAEVPVRNLHSCDVFGLPAGGAFGRPRRDKENDMSLGTIILIILIIALLGGFTGVGGGPFYGTGYYGGGGLGLVIVILLILLLLGKI”, the protein production entry is listed as “failed”.
In the case of “MSAATPPFRDPQLPFAKRVDDLMSRLTLDEKTAFLHQFAPAVERLGIAPFRTGQEALHGVAWMGPATVFPQAVGLGATWNEELVRRVGEAVSKEARAMRARDDRVGLNVWSPTVNLLRHPLWGRNEEGYSEDPRLTSAVATAYTRGLRGDHPAYWRTAPVLKHWLAHNNETDRDTSSSSVRPRVLHEYDLRAFRDTVEAGAVAGVMPAYNLVNGRPNHLSPHLGRHLRTWTQEDLLVCSDAGAPSNLVDSEHYFDTHEEATAAALRAGVDSFTDHGTDSSKIVARVRGALEAGLLTEADVDAAVRRQLSVRFRLGEFDPENDPYSGAADTGADFDTPEHRALARDAAEQAVVLLKNDGVLPLAPETRVAVVGLLADECKLDWYSGTLIHRSTPLEGLYERFGADRVSFAEGVDRVRLRTADGRFLHVLPADDASAEAPGTEGALDPALLAGRTDLPPLTTDAVGTELALIDWGEGVLTLRASDGRYLSVAEDGFVRASADQPGGWVVQETFRLEPHDDGHLLRHTGTGRPVQVAADGVKVAAPDAAAGAAAGGAGSADAEVFELVVVERGEDAVTRVAAGADVVVVVAGNDPHINGRETEDRTTLRLPAQQERLLRAARAANPATVLALVSAYPYAVGVETLPAVLWTAHGGQAAGTALARILAGDVSPAGRLPQTWYSDDADLPGLLDYDVIGGRQTYLYFEGTPLFPFGHGLSYASFGYGDLTAQVRDGAVAVSFTVTNTGEVSADEVAQLYVRAEAPSVPRPRRELLAHRRLTLAPGASDRVSFEVPLSALAFWDVAHDRWRLEPGPYALLVGASSEDVRLTTTVTIDGEPAVPRPVGARGVQAVDFDEQSGTEIVDRTKAAGDAVAAVSGRTGELLYRDCDFGAGAAGVTVSVAGAGSVEVALDGGPAVAVLSPDAPTAGPYDYVELASAFTAEGVHDLRVTLRGALRLAHVGFSG” it was “failed”; in that of “MSADIVFDRGSPSDIDEIKTFTSNTWKVGYYTDLYSKLADTGTMDDYVDKVIERWVNDGSVYVLRVSGRPVATIHMEKLPDGSVMLGGLRVHPEYRGSRLGMSIMQETIQFLRGKTERLRSAVYSWNEPSLRLVHRLGFHQVEEYPIYTFQGGSTAVPALKPVNERYAGRWRCFFIDWKYMCSDDPDIIHEEYSNNLIVDGSTFVYFDIYEGGIDLFVNDSDDASSFIEKYRSMNGRITFYVRKALANGLPYVPASSLTVWEYRY”, “not failed”.
For “MSADSNSTDADPTAHWSFETKQIHAGQHPDPTTNARALPIYATTSYTFDDTAHAAALFGLEIPGNIYTRIGNPTTDVVEQRIAALEGGVAALFLSSGQAAETFAILNLAGAGDHIVSSPRLYGGTYNLFHYSLAKLGIEVSFVDDPDDLDTWQAAVRPNTKAFFAETISNPQIDLLDTPAVSEVAHRNGVPLIVDNTIATPYLIQPLAQGADIVVHSATKYLGGHGAAIAGVIVDGGNFDWTQGRFPGFTTPDPSYHGVVFAELGPPAFALKARVQLLRDYGSAASPFNAFLVAQGLETLSLRIERHVANAQRVAEFLAARDDVLSVNYAGLPSSPWHERAKRLAPKGTGAVLSFELAGGIEAGKAFVNALKLHSHVANIGDVRSLVIHPASTTHAQLSPAEQLATGVSPGLVRLAVGIEGIDDILADLELGFAAARRFSADPQSVAAF”, the protein production entry was “not failed”.
For the sequence “MSAEKSISSDHVPLSDPALKTINRNAGRNLNHIAFISTLGGLLFGVDTGVINGAIGYMATPAELNLSPNNEGLVTSGITLGAAFGAVFAGHLSDRIGRKRLLKYLALLFFVCTLACSLAPNALFMIISRVLLGLAVGGASVIVPTYLSEISTPEIRGRLVTQNELMIVTGQLLAFIVNAILGNWFGHISNIWRYMIGFGMIPAVALFFGMMVVPESPRWLVMVNQLDNAFDSLRKIRSHPETCNEEITQIQDTLNQESEIKQATFKDLSTPWIRRLVFIGIGLGVMQQFIGINIMMYYGTTILTNSGFAHNAALIANIGNGLVSVIATFIGMSIMNRVNRRSMLIAGIIGTTTSLILIVGVSAFLSQSPLLPILVVLCTMMFLGFFQGFISPLVWLLLSEIFPQNLRGLGMGVSTFFLWFANFLVGYFFPILLSAVGMTWTFLIFVFFNILSFIFAYKYAPETRGKSLELIQMEFKYGDTTGINPEDK”, the protein production result is on record as “failed”.
For “MSAEKSSADTAKKTLTIYSTMSTDSERDTFRKLAAAFEKEHSDIHVSLHFPGNDYENMMRVRMAANDLPDLFDTHGWGKIRYGEYTADLRDMKWTQDLDPNLNSILKNKSGKVYAYPINQAKDGLAYNRNILDRYGIAPPETMDDFIKALRTIKEKSKGSIVPFWFAGYDKSSFAQYYDQFATPLLITDPAHNEKKQLINGTFQWSKFTYLSEILKQMQKEKLINIDAVTAKKSQLIELMAQNKIAFTMQGGTLGQDVAQINPNVKVGIIPTPAIHPGDDPIWIGGERYTLAAWKDSPQLKEAKDFIAFMARPANAKQMAEATSLPSGLTNVKADIFYANDYEYYQDVKVEPYFDRLYLPNGMWDVLGTVGQELAADILAPQDISQKLGREYKRLREQSETQGAENNELEHHHHHH”, the protein production entry is on record as “not failed”.
Regarding “MSAELTRARQQLSQIRGYLRQGKVMPAAQAFQSALVIVLKSPLMRAEREEFERMFADAAHHLNNDAGLRALFPLKIEYLPGSEKELLDIIRELVTAVNNAAVTEAQEQLAALDARKAAGLEQGQAHLDAQEFDAAAAVFRQLSHEFKDDPQLRGEIGERFLKAGRYEEAFDYLAQALDLSPESIHLYNRIGIALRRLGRFETGEKYYLRALQYAGHDPNLLFNLGRLYVDWQRWDKVAKAAAAALRVNPAFDEARKMLEFAERKLQR”, the protein production result was “failed”.
“MSAEQDKEPIALKRVRGGDSGLDGLGGPNIQLGSPDKKKRKANTQGSSFPPLSEYAPPPNPNSDHLVAANPFDDSYNTISYKPLPSSNPYLGPGYPGFGGYSTFRMPPHVPPRMSSPYCGPYSLRNQPHPFPQNPLGMGFNRPHAFNFGPHDNSNFGNPPYNNVLTQDINMPGQHFRQGSAENFSQIPPQNVGQVSNPDLASNFAPGNNSNFTSPLETNHSFIPPPNAFGQAKAPLPKQDFTQGATKTPNQNSSTHPPHLNMEDPVNQSNVELKNVNRNNVVQENSRSGSAEATNNHANGTQNKPRQPRGAADLCTPDKSRKFSLLPSRHGHSSSDPVYPCGICTNEVNDDQDAILCEASCQKWFHRICTGMTETAYGLLTAEASAVWGCDTCMADKDVQLMRTREAFGPPAVGGDA”: the protein production entry is “not failed”.
For “MSAFINQAAACAGDHAPRSAAQEARRGLRASLPVLLGFIPFALVLGAQATQKGLSVMEVPLMTGLNFGGGSEFTAIRLWTSPPHLLLIAAMSLLVNSRHLLMGAALAPYLRHVPRRRALAALFFMCDESWALALADAQSRATGRISLGYYLGVSAGLYLTWVVFTAIGAALGPVIGDVERYGFDMAFTAVFLVLLRGMWRGLRASRPWLASLAAAALTYRLMPDGAWYVAAGALAGLACAALTVPKEARA” the value was “failed”.
As to “MSAKIKIIPFGGVRENGKNMYAVDVNGGIYILDCGLKYPENELLGIDVVIPDWTYLRENKDRIVAVFLTHGHADAIGALPYFLSEFNVPVFGSEMTIALAKINVADEPKIKKFDDFHVIDEKTEIDFGDVVVSFFSTTHSIPESLGIDLKTDEGQIIYTGDFKFDQTAKPGYQTDYARLGAIGQAGVLALLSDSANAENPAMNASEQSLAESIEETFHYRDSRVIVACVASNILRIQQVFDAAAKTGRKVCLTGKDLEKIVNTAMELGKLTFDADLLVTTDQLDDLAPNEIVILQTGKMGEPIKAIQRMANKQEKDFNIQAGDLVYITTTPSHAMDTTVAQTRDMVYRAGGEVKAISDELNSSGHAYKRDLQLMLNLMKPKFLIPIQGEYRLLNAHADAAMELGIPADHIFILSKGDVLTYAQGDMGLGEGIDVSDTMIDGIGVGDIGNIVLRDRKVLADDGIFIAVVTIDRKKKQIVADPKITSRGFVYVKANKDLMQESSQIIRKAVQNNLDNKEFDWGHLKQDVREHLSHYLFEQTHRRPVILPVIMEVNQHHRRTTKEKPGAGATNEKPVTKSAPKAKAEQTAKPTHKPRRNRKRRPTKKTTTDNA”, the protein production entry is reported as “failed”.
Turning to “MSALPSYTQNGQTITFAFAQPLQLTIVTPEIIRVFINRGEQGESYAIEGHKIQATDFTIESAGDHYIIRTSALTIHLDSERHLDTFDKDGNALITLEHHHHHH”, the protein production entry is given as “not failed”.
In the case of “MSALRTIGALTAREMLKFVRDRSRVLGALAQPLALWLLLGLGFQNTFQPPQGSVGGSYGAFLLPGILALVLLFTAIFSTISIVEERTSGFLQAVLVAPTPRTALVFGTTLGGTLLATVQALLFLGALPLIDLSPGVAGVGMIVAVCLLTGLAFTALGFAIAWRMETTRGFHAVMNLFLLPLWFLSGAMFPVDGAAPVLQVVMWGNPVSYAVSGLRHGFHGFAGTPAALAGPGVCLAVTGAFAVLMTGLAVWQVRRPFFQT” it was “failed”.

For the origin of these results see a protein production outcome set (Wang et al. 2014).
